Experimental data reported in patent US20200353078A1 (AstraZeneca / MedImmune, published 2020).
Substitutions are numbered along the chain they refer to. Read-outs that look alike come from different tables or passages of the source.

B1: IL330377 IgG1 (antibody, V domains shown)
VH: EVQLLESGGGLVQPGGSLRLSCAASGFTFSSYAMSWVRQAPGKGLEWVSASDMLYGSTYYADSVKGRFTISRDNSKNTLYLQMNSLRAEDTAVYYCSQNILGYFDSWGRGTLVTVSS
VL: SYVLTQPPSVSVSPGQTARITCSGDALPKQYAHWYQQKPGQAPALVIYKDTERPSGIPERFSGSSSGTTVTLTISGVQAEDEADYYCQSADSTGYHRVFGGGTKVTVL
B2: IL330388_fgl IgG1 (antibody, V domains shown)
VH: EVQLLESGGGLVQPGGSLRLSCAASGFTFSSYAMSWVRQAPGKGLEWVSASTPWQGSTYYADSVKGRFTISRDNSKNTLYLQMNSLRAEDTAVYYCVRWYWGWIDSWGRGTLVTVSS
VL: B1 VL with V3E, T5M, A44V, Q88M, A90S, S92P, T93S, Y95A, H96S, V105L
B3: IL330398 IgG1 (antibody, V domains shown)
VH: B2 VH
VL: B1 VL with Q88L, A90S, S92A, T93S, Y95A, H96S
B4: IL330396_fgl IgG1 (antibody, V domains shown)
VH: B2 VH
VL: B1 VL with V3E, T5M, A44V, Q88M, A90S, S92D, Y95A, H96S, V105L
B5: IL330377_fgl IgG1 (antibody, V domains shown)
VH: B1 VH
VL: B1 VL with V3E, T5M, A44V, V105L
B6: IL330398_fgl IgG1 (antibody, V domains shown)
VH: B2 VH
VL: B1 VL with V3E, T5M, A44V, Q88L, A90S, S92A, T93S, Y95A, H96S, V105L
B7: 33_640081 IgG1 (antibody, V domains shown)
VH: EVQLLESGGGSVQPGGSLRLSCAASGFTFSSYAMNWVRQAPGKGLEWVSAISGSGGSTHYADSVKGRFTISRDNSKNTLYLQMNSLRAEDTAVYYCGRAKFMQLWGGGLRYPLGYWGQGTMVTVSS
VL: SYVLTQPPSVSVSPGQTASITCSGERMGDKYAAWYQQKPGQSPVLVIYQDTKRPSGIPERFSGSNSGNTATLTISGTQATDEADYYCQVWAADDTGVFGGGTKVTVL
notes: IgG1; also called ZZ1JMB-H05
B8: 33_640237 IgG1 (antibody, V domains shown)
VH: EVQLLESGGGLVQPGGSLRLSCAASGFTFSSYAMSWVRQAPGKGLEWVSGIADDFTSTYYADPVKGRFTISRDNSKNTLYLQMNSLRAEDTAVYYCARDLWMMNYAGGLRYPFGYWGQGTTVTVSS
VL: SYVLTQPPSVSVSPGQTASITCSGERMGDKYAAWYQQKPGQSPVLVIYRDTKRPSGIPERFSGSNSGNTATLTISGTQAIDEADYYCGVLKQDTGVFGGGTKVTVL
notes: IgG1; also called ZZ1M37-E06
B9: 33_640076-4 IgG1 (antibody, V domains shown)
VH: B8 VH with A52S, D53A, D54I, F55D, T56Q, P63S, M103E, Y105W, A106V, T121M
VL: B8 VL with I80M, G88E, L90K, Q92S
notes: IgG1
B10: 33_640001 Fab (Fab, V domains shown)
VH: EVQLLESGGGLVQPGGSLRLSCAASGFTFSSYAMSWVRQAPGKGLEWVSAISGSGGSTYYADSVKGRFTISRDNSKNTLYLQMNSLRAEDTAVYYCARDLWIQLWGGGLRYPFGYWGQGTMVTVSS
VL: B8 VL with R49Q, I80M, G88Q, L90W, K91D, Q92S, D93S
notes: Fab made by papain cleavage of full length IgG1
B11: 33_640087-7B Fab (Fab, V domains shown)
VH: EVQLLESGGGLVQPGGSLRLSCAASGFTFSSYAMSWVRQAPGKGLEWVSGISAIDQSTYYADSVKGRFTISRDNSKNTLYLQMNSLRAEDTAVYYCARQKFMQLWGGGLRYPFGYWGQGTMVTVSS
VL: B8 VL with R26G, I80M, L90I, K91Q, Q92D, D93N, V103L
notes: as for B10
B12: 33_640082-6 IgG1 (antibody, V domains shown)
VH: B11 VH with A53G, Q56T
VL: B8 VL with I80M
notes: IgG1
B13: 33_640050 Fab (Fab, V domains shown)
VH: B7 VH with S11L, N35S, H59Y, G97P, A99H, L113F
VL: B8 VL with R49Q, I80M, G88Q, L90W, K91D, Q92S, D93S
notes: as for B10
B14: 33_640086-6 IgG1 (antibody, V domains shown)
VH: B11 VH with A53G, Q56T, Q99D
VL: B8 VL with I80M, G88E, L90K, K91V, Q92K
notes: IgG1
B15: 33_640084-2 IgG1 (antibody, V domains shown)
VH: B11 VH with T28A, G50A, A53G, I54S, D55G, Q56G
VL: B8 VL with I80M, G88Q, L90W, K91R, Q92D, T94S, G95P, V96I
notes: IgG1
B16: 33_640082-7 IgG1 (antibody, V domains shown)
VH: B11 VH
VL: B8 VL with I80M
notes: IgG1
B17: IL330180 IgG (antibody, V domains shown)
VH: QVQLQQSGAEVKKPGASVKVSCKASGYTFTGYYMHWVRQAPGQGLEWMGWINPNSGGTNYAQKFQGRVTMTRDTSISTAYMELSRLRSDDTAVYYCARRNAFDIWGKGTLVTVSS
VL: QPVLTQPPSVSEAPRQRVTISCSGSSSNIGNNAVNWYQQLPGTAPKLLIYRNNQRPSGVPDRFSGSKSGTSASLAISGLRSEDEADYYCAAWDDSLSGWVFGGGTKVNVL

Legend:
[1] = target: T1, Human IL-33 (Axxora/Adipogen AG-40B-0038) (human, UniProt O95760 112-270, limits assumed); assay: cell-based or functional assay
T1 sequence (looked up): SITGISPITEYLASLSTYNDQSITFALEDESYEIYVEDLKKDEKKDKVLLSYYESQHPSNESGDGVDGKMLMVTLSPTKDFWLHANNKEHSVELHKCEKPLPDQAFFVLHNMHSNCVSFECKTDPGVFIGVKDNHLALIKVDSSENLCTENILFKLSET

[2] = target: T1, Human IL-33 (Axxora/Adipogen …); assay: cell-based or functional assay; remark: listed apart in the source
[3] = target: T2, His10/Avi Human IL33-01 (human); assay: HTRF epitope competition, IgG titrated; competitor DyLight labelled 33_640117 IgG; overnight
T2 construct: Wild type mature IL-33 with N-terminal 10xHis, Avitag and Factor Xa site; biotinylated by BirA on the Avitag where used biotinylated; reduced form unless treated; also called N-terminal His Avi IL-33; His-Avi human IL-33 wild type
T2 chain: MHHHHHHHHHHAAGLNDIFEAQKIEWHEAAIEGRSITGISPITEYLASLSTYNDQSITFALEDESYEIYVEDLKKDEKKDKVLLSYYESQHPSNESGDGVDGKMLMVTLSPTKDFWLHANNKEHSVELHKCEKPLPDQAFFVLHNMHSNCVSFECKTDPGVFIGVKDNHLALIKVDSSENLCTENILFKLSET
Procedure: (§1) As the epitope competition assay utilising 33_640027 reached its limit of sensitivity, an assay using 33_640117 was used for testing purified scFv samples. The assay was essentially as described for the 33v20064 competition assay with the following modifications: 2.5 nM DyLight labelled 33_640117 was prepared and 2.5 microlitres added to the assay plates. This was followed by the addition of 2.5 microlitres of a solution containing 0.12 nM biotinylated human IL-33-01 combined with 0.75 nM streptavidin cryptate detection (Cisbio International, 610SAKLB) for the human assay or a solution containing 0.24 nM biotinylated cynomolgus IL-33 combined with 1.5 nM streptavidin cryptate detection (Cisbio International, 610SAKLB) for the cynomolgus assay. Fluorescence was read after one hour and overnight incubation.
(§2) The ability of anti-IL-33 antibodies to inhibit the binding of biotinylated His Avi human IL-33 or cynomolgus His Avi IL-33 to the DyLight labelled 33_640117 IgG was assessed in a biochemical HTRF® (Homogeneous Time-Resolved Fluorescence, Cisbio International) competition assays as described above.

[4] = target: T3, His10/Avi Cyno IL-33 (cynomolgus monkey); assay: HTRF epitope competition, IgG titrated; competitor DyLight labelled 33_640117 IgG; 1 hour
T3 construct: also called Cynomolgus 10His Avitag IL-33; biotinylated His Avi cynomolgus IL-33
T3 chain: T2 chain with E77K, N94S, H118Q, M146R, H147S, S148F, S177Y, C182G, T183S, T193I
Procedure: as §1, §2

[5] = target: T2, His10/Avi Human IL33-01; assay: as above
Procedure: as §1, §2

[6] = target: T4, Full-length human IL-33 (amino acids 1-270), HEK293-EBNA cell lysate (human, UniProt O95760 1-270); assay: cell-based or functional assay
T4 sequence (looked up): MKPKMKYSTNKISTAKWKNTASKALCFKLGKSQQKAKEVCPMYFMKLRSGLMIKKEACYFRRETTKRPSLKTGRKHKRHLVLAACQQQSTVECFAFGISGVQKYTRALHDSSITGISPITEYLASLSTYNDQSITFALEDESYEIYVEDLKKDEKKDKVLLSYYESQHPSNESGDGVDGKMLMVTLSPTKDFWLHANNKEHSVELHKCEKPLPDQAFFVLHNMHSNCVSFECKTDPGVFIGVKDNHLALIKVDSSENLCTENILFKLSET

[7] = target: T2, His10/Avi Human IL33-01; assay: cell-based or functional assay
[8] = target: T5, Recombinant human IL-33 (construct not named in the example) (human, UniProt O95760 112-270, limits assumed); assay: SPR Biacore T100, 25 C, biotinylated human IL-33 on streptavidin C1 chip, Fab as analyte
T5 construct: also called Recombinant, enzymatically biotinylated human IL-33 (produced in-house); IL-33 (200 nM)
T5 sequence (looked up): T1 sequence (looked up)
Procedure: Fab fragments were generated by papain cleavage from full length IgG1 and purified by SEC. […] Streptavidin was covalently immobilised to a C1 chip surface using standard amine coupling techniques at a concentration of […] in 10 mM Sodium acetate pH 4.5. […] Recombinant, enzymatically biotinylated human IL-33 (produced in-house) was titrated onto the streptavidin chip surface at […] in HBS-EP+ buffer to enable ˜30 RUs of Fab binding at saturation (Rmax). This low level of analyte binding ensured minimal mass transport effects.
The IL-33 Fab was serially diluted from 5 nM to 78 pM in HBS-EP+ buffer and flowed over the chip at 50 μl/min, with 3 minutes association and up to 30 minutes dissociation. Multiple buffer only injections were made under the same conditions to allow for double reference subtraction of the final sensorgram sets, which were analysed using the BiaEval software (version 2.0.1). The chip surface was fully regenerated with pulses of 3M MgCl₂.

[9] = target: T1, Human IL-33 (Axxora/Adipogen …); assay: cell-based or functional assay; remark: listed apart in the source

Binder	IC50 [3] [nM]	IC50 [4] [nM]	IC50 [5] [nM]	IC50, Huvec IL-8 assay vs. full length IL-33 cell lysate [6] [nM]	IC50, Huvec IL-8 assay vs. His Avi IL-33 [7] [nM]	also measured
B1	–	–	–	–	–	Huvec IL-6 production, maximum inhibition [1]: ~70%
B2	–	–	–	–	–	IC50, Huvec IL-6 production [2]: 2.1 nM; IC50, Mast cell IL-6 production [2]: 1.2 nM
B3	–	–	–	–	–	Huvec IL-6 production, maximum inhibition [1]: ~70%
B4	–	–	–	–	–	IC50, Huvec IL-6 production [2]: 2.8 nM; IC50, Mast cell IL-6 production [2]: 1.5 nM
B5	–	–	–	–	–	IC50, Huvec IL-6 production [2]: 6.6 nM; IC50, Mast cell IL-6 production [2]: 1.3 nM
B6	–	–	–	–	–	IC50, Huvec IL-6 production [2]: 1.5 nM; IC50, Mast cell IL-6 production [2]: 0.9 nM
B7	0.6	10	0.3	–	–	–
B8	0.1	1.8	0.1	0.091	0.056	–
B9	0.1	0.6	0.1	0.095	0.032	–
B10	–	–	–	–	–	Kd [8]: 3.34 nM; koff [8]: 0.0326 s⁻¹; kon [8]: 9.76e+06 M⁻¹ s⁻¹
B11	–	–	–	–	–	Kd [8]: 0.00043 nM; koff [8]: 9.42e-06 s⁻¹; kon [8]: 2.2e+07 M⁻¹ s⁻¹
B12	0.1	0.2	0.1	0.097	0.03	–
B13	–	–	–	–	–	Kd [8]: 0.0034 nM; koff [8]: 0.000105 s⁻¹; kon [8]: 3.08e+07 M⁻¹ s⁻¹
B14	0.1	0.2	0.1	0.081	0.026	–
B15	0.3	0.8	0.3	0.132	0.036	–
B16	0.1	0.2	0.1	0.095	0.031	–
B17	–	–	–	–	–	IC50, Mast cell IL-6 production [9]: 22 nM
